According to article PMC5919683, “Transcription factor HAT1 is a substrate of SnRK2.3 kinase and negatively regulates ABA synthesis and signaling in Arabidopsis responding to drought” (PLoS Genetics, 2018):

B1: MBP-HAT1 (natural protein, Arabidopsis thaliana, UniProt P46600 1-282, looked up)
chain: MMMGKEDLGLSLSLGFAQNHPLQLNLKPTSSPMSNLQMFPWNQTLVSSSDQQKQQFLRKIDVNSLPTTVDLEEETGVSSPNSTISSTVSGKRRSTEREGTSGGGCGDDLDITLDRSSSRGTSDEEEDYGGETCRKKLRLSKDQSAVLEDTFKEHNTLNPKQKLALAKKLGLTARQVEVWFQNRRARTKLKQTEVDCEYLKRCVEKLTEENRRLEKEAAELRALKLSPRLYGQMSPPTTLLMCPSCERVAGPSSSNHNQRSVSLSPWLQMAHGSTFDVMRPRS
notes: HAT1 of Arabidopsis thaliana; the HAT1 coding region amplified from Col-0 cDNA; The methods of the EMSA speak of recombinant proteins purified from E. coli; also called MBP-tagged HAT1; MBP-fusion HAT1 protein; source: recombinant (pETMALc-H vector), purified with amylose resin (NEB)
B2: ABA3 A1 WT probe (dsDNA)
DNA 1: ATATTTAATTTAATAATTATTGGTTTAAACAAAATT
DNA 2: AATTTTGTTTAAACCAATAATTATTAAATTAAATAT
B3: ABA3 A1 mutant probe (dsDNA)
DNA 1: ATATTTAATTGCTGGTCGTTGGTTTAAACAAAATT
DNA 2: AATTTTGTTTAAACCAACGACCAGCAATTAAATAT
B4: NCED3 N1 WT probe (dsDNA)
DNA 1: AAAAATTCCAATTATTGTGTTACTCTATTCTTCTAAA
DNA 2: TTTAGAAGAATAGAGTAACACAATAATTGGAATTTTT
B5: NCED3 N1 mutant probe (dsDNA)
DNA 1: AAACATTCGCTGGTCGTTGTTACTCTATTCTTCTAAA
DNA 2: TTTAGAAGAATAGAGTAACAACGACCAGCGAATGTTT

Key:
[1] = molecular target: T1, GST-SnRK2.2 (Arabidopsis thaliana, UniProt Q39192 1-362); assay: pull-down; GST pull-down: GST or GST-SnRK2s as bait, MBP-tagged HAT1 or its domains detected by western blotting with anti-MBP antibody; details: both partners purified
T1 construct: SnRK2.2 of Arabidopsis; coding region inserted into pGEX-6P-1; also called GST-SnRK2s; source: recombinant (pGEX-6P-1 vector); purification told only for GST-SnRK2.3
T1 sequence (looked up): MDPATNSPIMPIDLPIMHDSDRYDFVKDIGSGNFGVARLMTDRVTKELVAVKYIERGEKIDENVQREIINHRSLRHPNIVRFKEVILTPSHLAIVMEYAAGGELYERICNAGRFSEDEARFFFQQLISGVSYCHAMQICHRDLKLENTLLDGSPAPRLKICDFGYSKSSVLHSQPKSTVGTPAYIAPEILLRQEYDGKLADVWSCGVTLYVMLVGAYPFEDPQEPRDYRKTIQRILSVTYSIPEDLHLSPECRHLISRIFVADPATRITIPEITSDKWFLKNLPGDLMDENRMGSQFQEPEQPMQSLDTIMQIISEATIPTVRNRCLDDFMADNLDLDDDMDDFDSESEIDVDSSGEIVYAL

[2] = molecular target: T2, GST-SnRK2.3 (Arabidopsis thaliana, UniProt Q39193 1-361); assay: as above; details: both partners purified
T2 construct: SnRK2.3 of Arabidopsis; coding region inserted into pGEX-6P-1; also called GST-SnRK2s; SnRK2.3 fused with GST; source: recombinant (pGEX-6P-1 vector), purified with glutathione beads (Sigma)
T2 sequence (looked up): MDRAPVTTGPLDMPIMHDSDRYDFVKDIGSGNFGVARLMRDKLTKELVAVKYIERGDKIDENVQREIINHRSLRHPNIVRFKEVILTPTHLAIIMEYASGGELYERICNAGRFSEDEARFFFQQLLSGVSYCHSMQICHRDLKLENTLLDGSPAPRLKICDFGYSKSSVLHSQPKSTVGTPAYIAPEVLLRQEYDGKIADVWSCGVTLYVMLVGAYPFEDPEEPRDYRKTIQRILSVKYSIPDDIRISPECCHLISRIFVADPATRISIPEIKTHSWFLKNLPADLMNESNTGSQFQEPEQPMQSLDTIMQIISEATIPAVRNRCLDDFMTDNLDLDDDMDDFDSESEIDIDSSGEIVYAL

[3] = molecular target: T3, GST-SnRK2.6 (Arabidopsis thaliana, UniProt Q940H6 1-362); assay: as above; details: both partners purified
T3 construct: SnRK2.6 of Arabidopsis; coding region inserted into pGEX-6P-1; also called GST-SnRK2s; source: recombinant (pGEX-6P-1 vector); purification told only for GST-SnRK2.3
T3 sequence (looked up): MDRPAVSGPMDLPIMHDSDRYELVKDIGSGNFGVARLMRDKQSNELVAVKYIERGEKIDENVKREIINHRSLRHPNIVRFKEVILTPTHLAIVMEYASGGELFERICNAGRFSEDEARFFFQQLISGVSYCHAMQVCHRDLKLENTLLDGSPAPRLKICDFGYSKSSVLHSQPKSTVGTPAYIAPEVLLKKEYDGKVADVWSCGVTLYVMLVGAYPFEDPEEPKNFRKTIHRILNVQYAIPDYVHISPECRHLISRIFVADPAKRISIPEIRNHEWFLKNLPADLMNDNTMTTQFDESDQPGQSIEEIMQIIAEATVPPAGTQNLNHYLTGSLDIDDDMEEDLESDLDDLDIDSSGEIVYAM

[4] = molecular target: T4, MBP-HAT1 (Arabidopsis thaliana (Col-0), UniProt P46600 1-282); assay: EMSA; EMSA: 25 mM HEPES-KOH pH 8.0, 50 mM KCl, 1 mM DTT, 10% glycerol, 20 uL, ~1 ng probe, 30 min on ice; 5% native PAGE, 1x TGE pH 8.7; details: protein: recombinant; tags: MBP (pETMALc-H); chain copies: 2
T4 sequence: B1 chain

| Binder | binding result [1] | binding result [2] | binding result [3] | binding result [4] |
| --- | --- | --- | --- | --- |
| B1 | binds | binds | binds |  |
| B2 |  |  |  | binds |
| B3 |  |  |  | no binding |
| B4 |  |  |  | binds |
| B5 |  |  |  | no binding |
